Fold over background data for 8 molecules are collected here from US20220235118A1 (IMMUNOME, published 2022).

Sequences and labels used below:
B1: PR201_00151 (antibody, V domains shown)
VH: RVTLRESGPALVKPTQTLTLTCTFSGFSLNTSGMCVSWIRQPPGKALEWLARIDWDDDKYYSTSLETRLTISKDTSKNQVVLTMTNLDPVDTGTYYCARISIQSRGGGADYWGQGTLVTVSS
VL: DIQMTQSPSSLSASVGDRVTITCRASQSISSYLHWYQQKSGKAPKLLIFVASTLQSGVPSRFSGSGSGTDFTLTISSLQPEDSAAYYCQQSYSPPWTFGQGTKVEIK
B2: PR196_00413_a (antibody, V domains shown)
VH: QVQLVQSGAEVKKPGSSVKVSCKASGGTFSSYAITWVRQAPGQGLEWMGGIIPIFGTANYAQKFQGRVTITADESTSTAYMELSSLRSEDTAVYYCASDYGDSPLGYWGQGTLVTVSS
VL: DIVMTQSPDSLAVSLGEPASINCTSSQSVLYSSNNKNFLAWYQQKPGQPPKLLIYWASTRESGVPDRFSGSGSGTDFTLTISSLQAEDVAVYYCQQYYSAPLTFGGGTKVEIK
B3: PR199_00255 (antibody, V domains shown)
VH: QVQLVESGGGVVQPGRSLRLSCAASGFTFSTYGMHWVRQAPGKGLEWVAVIWYNGINKHYADSVKGRFTISRDNSKNTLYLQMSSLRVEDTAVYYCARDWGTLTTLFDFWGQGTLVTVSS
VL: DIQMTQSPSSLSASVGERATITCRASQSISSHLNWYQQKPGKAPKFLIYGASSLQSGVPSRFSGSGSGTDFTLTISSLQPEDFATYYCQQSYSTPPWTFGQGTKVEIK
notes: also called IMM20279; PR190_00255
B4: PR194_00292 (antibody, V domains shown)
VH: QVQLQQWGAGLLKPSETLSLTCAVYGGSLSGYYWSWIRQPPGKGLEWIGEINHSGSTNHNPSLKSRVSISVDTSKNQFSLKLSSVTAADTAVYYCARAWKYSSSWYSGGIYYGMDVWGQGTTVTVSS
VL: QSALTQPASVSGSPGQSITISCSGTSSDVGSYNLVSWYQQHPGKAPKLMIYEGTKRPSGVSNRFSSSKSGNTASLTISGLQAEDEADYYCCSYAGFSTWVFGGGTKLTVL
B5: PR194_00453 (antibody, V domains shown)
VH: QLQLQESGPGLVKPSETLSLTCTVSGGSISSSSSYWGWFRQPPGKGLGWIRSIYYSGSTYYNPSLKSRVTMSVDTSKNQFSLKLSSVTAADTAVYYCARAKFSVWDNYRYPFDYWGQGILVTVSS
VL: not shown
B6: PR197_00647 (antibody, V domains shown)
VH: QVQLVESGGGVVQPGRSLRLSCAASGFTFSSYAMHWVRQAPGKGLQWVTLISYDGGDKYYADSVRGRFTISRDNSKNTLYLQMNSLRTEDTAVYYCARDRPQTGDWFPPIPTGVLDVWGQGTTVTVSS
VL: DIQMTQSPSSLSASVGDRVTITCRASQGISNYLAWFQQKPGKAPKSLIYAASSLQSGVPSRFSGSESGTDFTLTISSLQPEDFATYYCQQYHSYPITFGQGTRLEIK
B7: PR194_00068 (antibody, V domains shown)
VH: EVQLLESGGGLVQPGGSLRLSCSASGFTFTNYAMSWVRQAPGKGLEWVSTISGSGGSTYYADSVKGRFTISRDNSKSTLFLQMNSLRAEDTAIYYCANSGPTGDLDYWGQGTLVTVSS
VL: SYELTQPPSVSVSPGQTTLSLTCSGDKLGNKYVCWYQQKPGQSPVLVIYQDTKRPSGIPERVSGSNSGDTATLTISGTQAMDEADYYCQAWDSSTAVFGGGTKLTVL
B8: PR194_00364_b (antibody, V domains shown)
VH: EVQLVESGGGLVKPGGSLRLSCSASGFTFTTYTMNWVRQAPGKGLEWVSSISSTGLSIYYADSVKGRFTISRDNAKNSLYLQMNSLRAEDTAVYYCARDPSPTTIYYYYYMDVWGKGTTVTVSS
VL: QSALTQPASVSGSPGQSITISCTGTSSDVGTYNLVSWYQHYPGKAPKLIIYEVSKRPSGVSDRFSGSKSGNTASLTISGLQAEDEADYYCCSYAGSTTGYVVFGGGTKLTVL

One assay has as its target T1, SARS-CoV-2 Spike RBD N501Y (SARS-CoV-2, UniProt P0DTC2 319-541).
T1 construct: domain: RBD
Description: HTRF, soluble RBD construct. In general terms: In TR-FRET formats the signal depends on donor and acceptor labels being close together.
In the case of B1, the fold over background was found to be 6.16 fold over background.
The same measure, in the same setting: then B2, with 1.08 fold over background; and B3, with 6.15 fold over background; and B4, with 0.996 fold over background.
The same measure, in the same setting: then B5, with 1.03 fold over background.
On the same count and under the same terms, then B6, with 1.06 fold over background.

For a further assay, the target named is T2, SARS-CoV-2 Spike RBD Y453F (SARS-CoV-2, UniProt P0DTC2 319-541).
T2 construct: domain: RBD
Description: HTRF, soluble RBD construct.
On to B1, for which the fold over background was determined as 5.48 fold over background.
Take B2: the fold over background was 1.06 fold over background.
On the same count and under the same terms, then B4, with 0.974 fold over background; and B5, with 0.987 fold over background; and B6, with 1.11 fold over background.

A further assay deals with T3, SARS-CoV-2 Spike RBD A475V (SARS-CoV-2, UniProt P0DTC2 319-541).
T3 construct: domain: RBD
Nature of the assay: HTRF, soluble RBD construct.
Take B1: the fold over background was determined as 5.7 fold over background.
The same measure, in the same setting: the figure for B2 is 1.01 fold over background.
The same measure, in the same setting: then B3, with 7.64 fold over background; and B4, with 1.02 fold over background; and B5, with 1.06 fold over background.
Same read-out and setting: the figure for B6 is 0.999 fold over background.

A further assay deals with T4, SARS-CoV-2 Spike RBD E406Q (SARS-CoV-2, UniProt P0DTC2 319-541).
T4 construct: domain: RBD
Nature of the assay: HTRF, soluble RBD construct.
In the case of B1, the fold over background worked out at 8.3 fold over background.
On the same count and under the same terms, the figure for B2 is 1.02 fold over background; for B3 it is 10.9 fold over background; for B4 it is 0.967 fold over background.
For B5, the fold over background was 0.99 fold over background.
Take B6: the fold over background was found to be 1.03 fold over background.

The next assay concerns the target T5, SARS-CoV-2 Spike RBD K417N (SARS-CoV-2, UniProt P0DTC2 319-541).
T5 construct: domain: RBD
Description: HTRF, soluble RBD construct.
For B1, the fold over background turned out to be 1.09 fold over background.
Same read-out and setting: then B2, with 1.06 fold over background.
On the same count and under the same terms, then B3, with 7.29 fold over background; and B4, with 1.03 fold over background.
On the same count and under the same terms, the figure for B5 is 1.1 fold over background.
For B6, the fold over background is 1.03 fold over background.

The target in the next assay is T6, SARS-CoV-2 Spike RBD N439K (SARS-CoV-2, UniProt P0DTC2 319-541).
T6 construct: domain: RBD
Description: HTRF, soluble RBD construct.
For B1, the fold over background was found to be 6.03 fold over background.
For the molecule B2, the fold over background is 1.07 fold over background.
The same measure, in the same setting: then B7, with 1.06 fold over background.
The same measure, in the same setting: then B3, with 6.09 fold over background; and B4, with 1.06 fold over background.
On the same count and under the same terms, then B5, with 1.05 fold over background.
As to B6, the fold over background worked out at 1.04 fold over background.

Another assay concerns the target T7, SARS-CoV-2 Spike RBD A352S (SARS-CoV-2, UniProt P0DTC2 319-541).
T7 construct: domain: RBD
Description: HTRF, soluble RBD construct.
B1: the fold over background came out at 7.06 fold over background.
Still for that read-out and setting: the figure for B2 is 1.07 fold over background; for B3 it is 8.26 fold over background; for B8 it is 0.917 fold over background.
Still for that read-out and setting: then B4, with 0.94 fold over background; and B5, with 1.11 fold over background.
Still for that read-out and setting: then B6, with 1.04 fold over background.

The target in the next assay is T8, SARS-CoV-2 Spike S1 domain A222S, D614G (SARS-CoV-2, UniProt P0DTC2 16-685).
T8 construct: domain: S1; also called Spanish (A222S, D614G)
Nature of the assay: HTRF, soluble S1 construct.
As to B1, the fold over background was 7.29 fold over background.
Same read-out and setting: the figure for B2 is 8.74 fold over background; for B3 it is 9.3 fold over background; for B4 it is 1.02 fold over background.
Still for that read-out and setting: then B5, with 9.21 fold over background; and B6, with 9.54 fold over background.

Another assay concerns the target T9, SARS-CoV-2 Spike S1 domain D614G (SARS-CoV-2, UniProt P0DTC2 16-685).
T9 construct: domain: S1
Nature of the assay: HTRF, soluble S1 construct.
For B1, the fold over background was found to be 7.25 fold over background.
With B2, the fold over background came to 9.92 fold over background.
Same read-out and setting: then B3, with 11.2 fold over background; and B4, with 1.06 fold over background.
Still for that read-out and setting: then B5, with 9.55 fold over background; and B6, with 8.3 fold over background.

The target in a further assay is T10, SARS-CoV-2 Spike S1 domain K417N, E484K, N501Y, D614G (SARS-CoV-2, UniProt P0DTC2 16-685).
T10 construct: domain: S1; also called S. African (K417N, E484K, N501Y, D614G); B.1.351
Description: HTRF, soluble S1 construct.
With B1, the fold over background amounted to 1.05 fold over background.
On the same count and under the same terms, then B2, with 9 fold over background.
As to B3, the fold over background stood at 9.48 fold over background.
As for B4, the fold over background worked out at 2.26 fold over background.
As to B5, the fold over background is 9.57 fold over background.
Still for that read-out and setting: the figure for B6 is 7.72 fold over background.

Another assay addresses T11, SARS-CoV-2 Spike S1 domain ΔHV69/70, ΔY144, N501Y, A570D, D614G, P681H (SARS-CoV-2, UniProt P0DTC2 16-685).
T11 construct: domain: S1; also called U.K. (B.1.1.7); DHV69/70, DY144, N501Y, A570D, D614G, P681H
Description: HTRF, soluble S1 construct.
Regarding B1, the fold over background came out at 4.22 fold over background.
Same read-out and setting: the figure for B2 is 6.39 fold over background.
As to B3, the fold over background came out at 7.29 fold over background.
On the same count and under the same terms, then B4, with 2.37 fold over background; and B5, with 9.06 fold over background.
The same measure, in the same setting: the figure for B6 is 1.1 fold over background.

The target of another assay is T12, SARS-CoV-2 Spike S1 domain ΔHV69/70, Y453F, D614G (SARS-CoV-2, UniProt P0DTC2 16-685).
T12 construct: domain: S1; also called Denmark (ΔHV69/70, Y453F, D614G); DHV69/70, Y453F, D614G
Nature of the assay: HTRF, soluble S1 construct.
In the case of B1, the fold over background was found to be 6.53 fold over background.
Still for that read-out and setting: then B2, with 9.68 fold over background.
Still for that read-out and setting: the figure for B3 is 9.63 fold over background; for B4 it is 2.59 fold over background; for B5 it is 9.45 fold over background.
On the same count and under the same terms, the figure for B6 is 1.07 fold over background.
